T1: His6-SEPT9 ΔNΔC (G domain, aa 295-567) (UniProt Q9UHD8 295-567)
T1 construct: also called ΔNΔC-SEPT9; source: E. coli BL21DE3, purified (HisTrap IMAC, buffered in PBS by PD10)
T1 sequence (looked up): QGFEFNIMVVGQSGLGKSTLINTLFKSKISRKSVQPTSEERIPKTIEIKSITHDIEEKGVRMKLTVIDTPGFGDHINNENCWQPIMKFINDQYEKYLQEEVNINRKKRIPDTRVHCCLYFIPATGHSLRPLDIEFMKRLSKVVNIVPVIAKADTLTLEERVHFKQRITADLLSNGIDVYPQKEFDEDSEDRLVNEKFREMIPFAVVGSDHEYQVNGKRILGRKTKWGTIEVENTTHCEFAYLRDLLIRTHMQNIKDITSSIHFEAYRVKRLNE

B1: His6-SEPT9 (full length, SEPT9i1) (natural protein, UniProt Q9UHD8 1-586, looked up)
chain: MKKSYSGGTRTSSGRLRRLGDSSGPALKRSFEVEEVETPNSTPPRRVQTPLLRATVASSTQKFQDLGVKNSEPSARHVDSLSQRSPKASLRRVELSGPKAAEPVSRRTELSIDISSKQVENAGAIGPSRFGLKRAEVLGHKTPEPAPRRTEITIVKPQESAHRRMEPPASKVPEVPTAPATDAAPKRVEIQMPKPAEAPTAPSPAQTLENSEPAPVSQLQSRLEPKPQPPVAEATPRSQEATEAAPSCVGDMADTPRDAGLKQAPASRNEKAPVDFGYVGIDSILEQMRRKAMKQGFEFNIMVVGQSGLGKSTLINTLFKSKISRKSVQPTSEERIPKTIEIKSITHDIEEKGVRMKLTVIDTPGFGDHINNENCWQPIMKFINDQYEKYLQEEVNINRKKRIPDTRVHCCLYFIPATGHSLRPLDIEFMKRLSKVVNIVPVIAKADTLTLEERVHFKQRITADLLSNGIDVYPQKEFDEDSEDRLVNEKFREMIPFAVVGSDHEYQVNGKRILGRKTKWGTIEVENTTHCEFAYLRDLLIRTHMQNIKDITSSIHFEAYRVKRLNEGSSAMANGMEEKEPEAPEM
notes: derived from plasmid #5 (EGFP-SEPT9, gift of E. Spiliotis); pES is an in-house pET15A-based plasmid for His6-tagged proteins; also called His-SEPT9; purified SEPT9; source: E. coli BL21DE3, purified (HisTrap IMAC, buffered in PBS by PD10)
B2: GST-EPLIN LIM (aa 228-288) (domain or fragment)
chain: not shown
notes: EPLIN (LIMA1 product), isoform alpha, residues 228-288, the LIM domain; Vector pGEX2T; also called isolated LIM domain of EPLIN; plasmid #7

Columns and labels:
[1] = target: T2, GST-EPLIN (full length, isoform alpha) (UniProt Q9UHB6-2 1-599); test: pull-down; GST fusion from E. coli extract held on glutathione Sepharose beads, washed with PBS, blocked with 1.5 μM BSA; purified His6-tagged protein added at 1.5 μM for 30 min in PBS with 0.1 mM Zn2+; eluted with 10 mM reduced glutathione; SDS-PAGE and Western blot; settings: both partners purified
T2 construct: EPLIN (epithelial protein lost in neoplasm, LIMA1 product), isoform alpha, full length; ORF amplified from Addgene plasmid #40928; numbers count on: isoform alpha; Vector pGEX2T; All EPLIN constructs derive from plasmid #1 (isoform alpha); also called epithelial protein lost in neoplasm; LIMA1 product
T2 sequence (Q9UHB6 161-759): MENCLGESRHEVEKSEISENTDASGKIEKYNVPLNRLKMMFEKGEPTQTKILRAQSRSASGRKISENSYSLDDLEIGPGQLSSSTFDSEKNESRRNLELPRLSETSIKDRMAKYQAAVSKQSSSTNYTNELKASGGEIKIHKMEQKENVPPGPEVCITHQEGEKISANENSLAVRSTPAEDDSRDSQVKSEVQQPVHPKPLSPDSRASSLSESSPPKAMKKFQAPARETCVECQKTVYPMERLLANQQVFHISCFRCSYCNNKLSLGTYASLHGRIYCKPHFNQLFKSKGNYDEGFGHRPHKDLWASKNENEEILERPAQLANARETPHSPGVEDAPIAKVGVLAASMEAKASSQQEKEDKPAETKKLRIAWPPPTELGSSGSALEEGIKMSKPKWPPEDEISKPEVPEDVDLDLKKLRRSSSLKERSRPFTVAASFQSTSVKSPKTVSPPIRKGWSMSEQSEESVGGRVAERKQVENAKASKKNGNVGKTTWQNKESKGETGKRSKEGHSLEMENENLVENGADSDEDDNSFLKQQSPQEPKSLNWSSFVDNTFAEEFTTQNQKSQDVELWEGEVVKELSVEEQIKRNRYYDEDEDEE

[2] = target: T1, His6-SEPT9 ΔNΔC (G domain, aa 295-567); test: as above; settings: both partners purified

Binder	binding result [1]	binding result [2]
B1	binds	–
B2	–	binds

— paper PMC11077590, “The concerted action of SEPT9 and EPLIN modulates the adhesion and migration of human fibroblasts” (Life Science Alliance, 2024)
